We go through 2 proteins from paper PMC10812501, “Repurposing Glutathione Transferases: Directed Evolution Combined with Chemical Modification for the Creation of a Semisynthetic Enzyme with High Hydroperoxidase Activity” (Antioxidants, 2023).

Substrate in series [1]: CC(C)(OO)c1ccccc1
In words: steady-state kinetics, coupled glutathione reductase/NADPH hydroperoxidase assay. Format: biochemical, Glycine max. Particulars: GSH 1.0 mM fixed, sodium phosphate 50 mM pH 7.0, 1 mM EDTA. An excerpt: steady-state kinetics, coupled glutathione reductase/NADPH hydroperoxidase assay on GmGSTU4-4

Substrate in series [2]: CC(C)(OO)c1ccccc1
The description is as above. Format: biochemical, Glycine max. Conditions: Sh14 shuffled variant, GSH 1.0 mM fixed, sodium phosphate 50 mM pH 7.0, 1 mM EDTA.

B1: GmGSTU4-4 (Glycine max) (protein)
chain: MSDEVVLLDFWPSPFGMRVRIALAEKGIKYEYKEEDLRNKSPLLLQMNPVHKKIPVLIHNGKPICESLIAVQYIEEVWNDRNPLLPSDPYQRAQTRFWADYVDKKIYDLGRKIWTSKGEEKEAAKKEFIEALKLLEEQLGDKTYFGGDNLGFVDIALVPFYTWFKAYETFGTLNIESECPKFIAWAKRCLQKESVAKSLPDQQKVYEFIMDLRKKLGIE
notes: dimer; Sh14 = shuffled variant differing by four point changes (R38Q/Q46K/W114C/I183V)
With B1, in series [1], the Km worked out at 454.3 ± 83.6 µM and the kcat was 0.178 ± 0.0167 s⁻¹.

B2: GmGSTU4-4 (Glycine max; I183V/Q46K/R38Q/W114C) (protein)
chain: MSDEVVLLDFWPSPFGMRVRIALAEKGIKYEYKEEDLQNKSPLLLKMNPVHKKIPVLIHNGKPICESLIAVQYIEEVWNDRNPLLPSDPYQRAQTRFWADYVDKKIYDLGRKICTSKGEEKEAAKKEFIEALKLLEEQLGDKTYFGGDNLGFVDIALVPFYTWFKAYETFGTLNIESECPKFVAWAKRCLQKESVAKSLPDQQKVYEFIMDLRKKLGIE
notes: as for B1
For the protein B2, in series [2], the Km was 255.8 ± 46.4 µM and the kcat was found to be 0.593 ± 0.0617 s⁻¹.

For orientation: Km means the substrate concentration at which the rate is half of its maximum. A word on the kcat: it is the maximal rate divided by the concentration of active sites.
